Experiments:
[1] = molecular target: microtubules (MTs) of cultured rat hippocampal neurons (rat (endogenous in hippocampal neurons)) (UniProt P68370); experiment: FRAP fitted with a reaction-diffusion simulation
[2] = molecular target: microtubules (MTs) of cultured rat hippocampal neurons (rat (endogenous in hippocampal neurons)) (UniProt P68370); experiment: FRAP fitted with a reaction-diffusion simulation; remark: listed apart in the source
[3] = molecular target: microtubules (MTs) of cultured rat hippocampal neurons (rat (endogenous in hippocampal neurons)) (UniProt P68370); experiment: FRAP fitted with a reaction-diffusion-advection simulation

Q: With “GFP-MAP2B expressed in cultured rat hippocampal neurons (from UniProt P11137-1 1-1827) (natural protein)” as the substance, how does the Kd [1] read?
A: Its Kd is 1 µM.

Q: Which Kd [2] does the source give for “GFP-MAP2C, wild type (pAcGFP-His-MAP2C), expressed in cultured rat hippocampal neurons (from UniProt P11137-2 1-471) (natural protein)” here?
A: Its Kd is 1 µM.

Q: And the Kd [1]?
A: Its Kd is 4.5 µM.

Q: And the Kd [3]?
A: The Kd was 3 µM.
